Assay results: patent publication US20090291083A1, “BARB4 TARGET, ANTIBODY DESIGNATED BARB4, BARB4 RELATED ANTIBODIES, AND METHODS OF MAKING AND USING SAME” (PATRYS LIMITED, priority 2008, published 2009)

Experiments:
Healthy Tissues: Breast = assay: Immunohistochemistry (IHC) with biotinylated BARB4 on healthy tissue; type: binding, human; conditions: glandular, positive/negative
Method: (§1) Immunohistochemistry with human IgG on human tissue naturally results in high background staining. Accordingly, BARB4 was labeled with biotin to reduce background.
(§2) BARB4 antibody and an unrelated commercial IgG control (Chrompure IgG, Dianova) where labelled with “EZ-Link Maleimide-PEO Solid Phase Biotinylation Kit” from Pierce (Cat-# 21930) and Immunohistochemistry was initiated on different tumor tissue. Parrafin embedded tissue was first deparaffinized by treatment with Xylene 1 for 5 min, Xylene 2 for 5 min, followed by 100% Ethanol 1 for 5 min, 100% Ethanol 2 for 5 min, 70 ml Methanol+500 μl H2O2 for 7 min, 90% Ethanol 1 for 3 min, 90% Ethanol 2 for 3 min, 80% Ethanol 1 for 3 min, 80% Ethanol 2 for 3 min, 70% Ethanol 1 for 3 min, 70% Ethanol 2 for 3 min, and then washed three times with distilled H2O. (1 and 2 mean that the tissues were treated 2 times with the same alcohol, one after the another, in two different tanks.) Tissue was then heated in Citric acid, pH 5,5 in a water-bath at 99.9° C. for 20 min, placed in Tris/NaCl (Tris, 0.6 g/l and NaCl 8.1 g/l, pH 7.4) for 5 min, block with 0.5% BSA in PBS for 60 min, and then washed three times with Tris/NaCl (Tris, 0.6 g/l and NaCl 8.1 g/l, pH 7.4). Primary antibody (150 μl per microscope slide) was added, or a negative control biotinylated isotype matched control human antibody (Chrompure IgG, Dianova, Germany) or a positive controlanti-cytokeratin antibody, and incubated for 30 min in a humidified chamber at 37° C. Tissue was washed three times with Tris/NaCl (Tris, 0.6 g/l and NaCl 8.1 g/l, pH 7.4). Secondary antibody: (150 […]) was subsequently added and incubated for 30 min in a humidified chamber at room temperature (for biotinylated antibodies: NeurtrAvidin 1:100 in PBS), washed three times with Tris/NaCl (Tris, 0.6 g/l and NaCl 8.1 g/l, pH7.4), placed in PBS for 10 min. Tiusse was subsequently incubated with diaminobenzidine (0.05%)-hydrogen peroxide (0.02%) (150 μl per microscope slide) (Sigma, Taufkirchen, München, Germany) for 10 min, washed three times with H2O, washed once with distilled H2O, incubated with hematoxylin/eosin for 5 min, and placed under running tap water 10-15 min. Tissue was then washed again with distilled H2O, and the slides covered with Aquatex (Merck Bioscience).

Healthy Tissues: Colon = assay: as above; type: binding, human; conditions: glandular, positive/negative
Method: as §1, §2

[1] = tested on: Healthy Tissues: Esophagus; assay: as above; type: binding, human; conditions: epithelial, positive/negative
Method: as §1, §2

Healthy Tissues: Lung = assay: as above; type: binding, human; conditions: glandular, alveolar, positive/negative
Method: as §1, §2

[2] = tested on: Healthy Tissues: Pancreas; assay: as above; type: binding, human; conditions: glandular, positive/negative
Method: as §1, §2

Healthy Tissues: Stomach = assay: as above; type: binding, human; conditions: glandular, positive/negative
Method: as §1, §2

[3] = tested on: lung carcinoma cells (A549); assay: FACS analysis of tumor cell binding; set-up: species or system human; conditions: 20 min on ice
Method: (§3) To analyze tumor cell binding, pancreas cancer cells (BXPC-3), stomach cancer cells (23132/87), lung carcinoma cells (A549) and malignant melanoma cells (HTB-69 and CRL-1424) were grown to subconfluency in complete medium, detached with Trypsin/EDTA and incubated on ice for 1 h for recreation. Tumor cells were subsequently incubated on ice with BARB4 antibody (diluted in PBS containing 0.01% sodium azide), or human isotype-matched control antibody (Chrompure human IgG, Dianova, Hamburg, Germany) for 20 min on ice. Following incubation, cells were incubated with a FITC-labeled rabbit anti-human IgG antibody (1:50, Dako, Germany) for 20 min on ice, and cells were analyzed by flow cytometry (FACScan; Becton Dickinson, USA).

[4] = tested on: pancreas cancer cells (BXPC-3); assay: FACS analysis of tumor cell binding; set-up: species or system human; conditions: 20 min on ice
Method: as §3

HEK 293 = assay: FACS analysis of cell surface binding, BARB4 and commercial TAF 15 antibody; conditions: BARB4 100 ug/ml, TAF 15 antibody 25 μg/ml
Method: (§4) To further validate BARB4 target protein TAF 15, BARB4 and a commercial TAF 15 antibody (anti-human TAFII p68, Santa Cruz Biotechnology, sc-81121) were analyzed for binding to BxPC-3, HEK 293, A549 and HeLa cell lines. In brief, cells were trypsinized with cell dissociation solution (Sigma C5789), resuspended in complete medium (RPMI 1640, PAA, E15-039, 10% Fetal bovine serum, PAA, A15-151 and 1% Glutamine, PAA, M11-004) and set on 2×10^5/ml. After 30 minutes on ice, cells were dispersed at 1 ml per FACS-tube and washed once with ice-cold PBS by centrifugation with 500 g and 4° C. Staining was done with BARB4 (100 ug/ml) or the commercial TAF 15 (25 μg/ml) IgG antibodies, control IgGs (IgG lambda, or mouse IgG), or without antibody in 200 μl PBS. Cells were incubated with 25 μg/ml antibody in 100 μl for 30 minutes on ice, then washed with ice cold PBS and secondary antibody (anti mouse IgG-FITC, dianova 115-095-008) was applied at a dilution of 1:50 in 200 μl per tube. After another 30 minutes of incubation in the dark, cells were washed twice with PBS and analyzed by FACS. […] BARB4 target protein TAF 15 validation was then analyzed by immunoprecipitation of MKNcell extracts with BARB4 and subsequent Western blotting with either BARB4 or anti-TAF 15 antibodies (Biomol, A300-308A; or Aviva, ARP30111_T100).

HeLa = assay: as above; conditions: BARB4 100 ug/ml, TAF 15 antibody 25 μg/ml
Method: as §4

B1: BARB4: human IgG antibody produced by hybridoma DSMZ Deposit No. DSM ACC2876; heavy chain SEQ ID NOs:1, 3, 5, 7, light chain SEQ ID NO:9 (antibody, V domains shown)
VH: QVQLVESGGGVVQPGRSLRLSCAASGFRFTTHGMHWVRQAPGKGLEWVAVISYNGRNKYYADYVNGRFTISRDDSRDTVFLQMNSLRPEDTAMYYCAKVRGDGYGDYGYFDYWGHGTLVSVSS
VL: QSALTQPRSVSGSPGQSVTISCTGTYNYVSWYQQHPGKAPKLMIFDVSRRSSGVPDRFSGSKSGNTASLTISGLQAEDEADYYCCSYGGTYLYVFGTGTTVTVLGQ
- Barb 4 +/− (Healthy Tissues: Breast): 0/2
- Barb 4 +/− (Healthy Tissues: Colon): 0/3
- Barb 4 +/− [1]: 0/1
- Barb 4 +/− (Healthy Tissues: Lung): 0/3
- Barb 4 +/− [2]: 0/2
- Barb 4 +/− (Healthy Tissues: Stomach): 0/3
- tumor cell binding (FACS) [3]: binds
- tumor cell binding (FACS) [4]: binds
- FACS binding to the cell surface (HEK 293): binding
- FACS binding to the cell surface (HeLa): binding
